Measurements as given in article PMC10127259.

Tests used:
Conditions in all cases: remark: other sources report otherwise
[1] = biological target: T1, Nt17 peptide (the first 17 amino acids at the N-terminus of huntingtin), P42858; assay: native MS; cVSSI-MS, positive ion mode; Nt17 10 uM incubated with POPC vesicles with 20% exogenous cholesterol, 10:1 lipid:peptide, 24 h at 37 °C, 10 mM ammonium acetate; peak areas normalised to [M + 2H]2+
T1 chain: MATLEKLMKAFESLKSF

[2] = biological target: T1, Nt17 peptide (the first 17 amino acids …); assay: native MS; cVSSI-MS, positive ion mode; Nt17 10 uM incubated with pure POPC vesicles (0% cholesterol), 10:1 lipid:peptide, 24 h at 37 °C, 10 mM ammonium acetate; peak areas normalised to [M + 2H]2+
[3] = biological target: T1, Nt17 peptide (the first 17 amino acids …); assay: native MS; cVSSI-MS, positive ion mode; Nt17 10 uM incubated with DOPC vesicles with 20% exogenous cholesterol, 10:1 lipid:peptide, 24 h at 37 °C, 10 mM ammonium acetate; peak areas normalised to [M + 2H]2+
[4] = biological target: T1, Nt17 peptide (the first 17 amino acids …); assay: native MS; cVSSI-MS, positive ion mode; Nt17 10 uM incubated with POPG vesicles with 20% exogenous cholesterol, 10:1 lipid:peptide, 24 h at 37 °C, 10 mM ammonium acetate; peak areas normalised to [M + 2H]2+
[5] = biological target: T1, Nt17 peptide (the first 17 amino acids …); assay: native MS; cVSSI-MS, positive ion mode; Nt17 10 uM incubated with pure DOPC vesicles (0% cholesterol), 10:1 lipid:peptide, 24 h at 37 °C, 10 mM ammonium acetate; peak areas normalised to [M + 2H]2+

relative integrated peak area of [2M + 2L] (2 Nt17 + 2 POPC), against [M + 2H]2+ [1]: 0.11%
relative integrated peak area of [3M + 1L] (3 Nt17 + 1 POPC), against [M + 2H]2+ [1]: 1.1%
total relative integrated peak area of complexes with two peptides, against [M + 2H]2+ [1]: 2.7%
relative integrated peak area of [2M + 1L] (2 Nt17 + 1 POPC), against [M + 2H]2+ [2]: 1.3%
relative integrated peak area of [3M + 1L] (3 Nt17 + 1 POPC), against [M + 2H]2+ [2]: 0.8%
relative peak area of [2M + 3L] (2 Nt17 + 3 DOPC), against [M + 2H]2+ [3]: 0.15%
total relative peak area of complexes with four peptides, against [M + 2H]2+ [3]: 1.2%
total relative peak area of complexes with three peptides, against [M + 2H]2+ [3]: 4%
total relative peak area of complexes with two peptides, against [M + 2H]2+ [3]: 8%
relative peak area of [2M + 2L] (2 Nt17 + 2 POPG), against [M + 2H]2+ [4]: 23%
relative peak area of [2M + 3L] (2 Nt17 + 3 POPG), against [M + 2H]2+ [4]: 0.6%
stoichiometry N [4]: 2
relative peak area of [2M + 3L] (2 Nt17 + 3 DOPC), against [M + 2H]2+ [5]: 0.45%
relative peak area of [3M + 1L] (3 Nt17 + 1 DOPC), against [M + 2H]2+ [5]: 3.3%
relative peak area of [4M + 1L] (4 Nt17 + 1 DOPC), against [M + 2H]2+ [5]: 0.98%
total relative peak area of complexes with three peptides, against [M + 2H]2+ [5]: 3.6%
total relative peak area of complexes with two peptides, against [M + 2H]2+ [5]: 10.3%
Binder: MATLEKLMKAFESLKSF [Nt17 peptide (the first 17 amino acids at the N-terminus of huntingtin), P42858 1-17]
